Literature values in article PMC5428663, “Identification of small molecule inhibitors of Interleukin-18” (Scientific Reports, 2017).

Target: hIL-18
Details: read-out: affinity for hIL-18

B1: hIL-18BP (protein, UniProt O95998 31-194, looked up)
Interleukin-18-binding protein: TPVSQTTTAATASVRSTKDPCPSQPPVFPAAKQCPALEVTWPEVEVPLNGTLSLSCVACSRFPNFSILYWLGNGSFIEHLPGRLWEGSTSRERGSTGTQLCKALVLEQLTPALHSTNFSCVLVDPEQVVQRHVVLAQLWAGLRATLPPTQEALPSSHSSPQQQG
In the case of B1, the Kd is given as 400 pM.
